Source: US20250346639A1, “BACTERIOCIN POLYPEPTIDES, NUCLEIC ACIDS ENCODING SAME, AND METHODS OF USE THEREOF” (Syngulon SA, priority 2022, published 2025)

B1: Uberolysin A (protein, listed as Streptococcus uberis)
chain: SGTAKKVVDAIDKGAAAFVIISIISTVISAGALGAVSASADFIILTVKNYISRNLKAQAVIWLAGYTGIA
modifications: circularized via Npu split intein; Uberolysin A (UberA); Strain 42
notes: circular bacteriocin of Streptococcus uberis 42
B2: Circularin A (protein, listed as Clostridium beijerinckii)
chain: SIASGGAGTLMTIGWATFKATVQKLAKQSMARAIAYVAGALGVQTAAATTIVNVILNAGTLVTVLGIIA
modifications: circularized via Npu split intein; Circularin A (CirA); ATCC 25752
notes: circular bacteriocin of Clostridium beijerinckii ATCC 25752
B3: Enterocin NKR-5-3B (protein, listed as Enterococcus faecium)
chain: SSYAAKKVIDIINTGSAVATIIALVTAVVGGGLITAGIVATAKSLIKKYGAKYAAAWLTANLGI
modifications: circularized via Npu split intein; Strain NKR-5-3; Enterocin NKR-5-3B
notes: circular bacteriocin of Enterococcus faecium NKR-5-3
B4: Bacteriocin BCW 2997: putative circular bacteriocin of Listeria monocytogenes BCW 2997; SEQ ID NO: 818 circularized with Npu split intein (protein)
chain: SIKVYLKKQIKKKGRKAVIAWLAKEFGIPGGVAATVLNIVEAGGWATTILSILTAVGSGGLSLIAAAGKE
modifications: circularized via Npu split intein; Strain BCW 2997; Bacteriocin BCW 2997; Listeria monocytogenes
B5: Bacteriocin YS111: putative circular bacteriocin of Streptococcus suis YS111; SEQ ID NO: 828 circularized with Npu split intein (protein, listed as Streptococcus suis)
chain: STVVNVILGAGTAVTILGIISSIASGGATTLLTVGWAGFKATVQRLAKQSMARAIAYVAAALGVPSAVA
modifications: circularized via Npu split intein; Strain YS111; Bacteriocin YS111
B6: Bacteriocin 3688STDY6124959: putative circular bacteriocin of Staphylococcus aureus 3688STDY6124959; SEQ ID NO: 814 circularized with Npu split intein (protein, listed as Staphylococcus aureus)
chain: STLGISSYAAKKAIDIIAAAGDVAAIVGLIGAVTGAGAIGAGILFTAKKLIKSYGKKYAAAWLT
modifications: circularized via Npu split intein; Bacteriocin 3688STDY6124959; Strain 3688STDY6124959
B7: DSM 15102: putative circular bacteriocin of Garciella nitratireducens DSM 15102; SEQ ID NO: 832 circularized with Npu split intein (protein, listed as Garciella nitratireducens)
chain: SMLGISTVAAKKVIDIIDTASTVATIISLIGVIVGVGGITAGLVTTAKAMIKKYGKKYATMWLA
modifications: circularized via Npu split intein; Bacteriocin DSM 15102; Strain DSM 15102
B8: Enterocin AS-48 (protein, listed as Enterococcus faecalis)
chain: SIKAYLKKEIKKKGKRAVIAWMAKEFGIPAAVAGTVLNVVEAGGWVTTIVSILTAVGSGGLSLLAAAGRE
modifications: circularized via Npu split intein; Enterocin AS-48 (EntAS48); Strain 48
notes: circular bacteriocin of Enterococcus faecalis S-48
B9: Amylocyclicin (protein, listed as Bacillus amyloliquefaciens)
chain: STAAAKKAIDIIDAASTIASIISLIGIVTGAGAISYAIVATAKTMIKKYGKKYAAAWLASTLGI
modifications: circularized via Npu split intein; Strain FZB42; Amylocyclicin (Alc)
notes: circular bacteriocin of Bacillus amyloliquefaciens FZB42
B10: Leucocyclicin Q (protein)
chain: SKSLANTILGAIAVGNLASWLLALVPGPGWATKAALATAETIVKHEGKAAAIAWLVNQLGI
modifications: circularized via Npu split intein; Strain TK41401; Leucocyclicin Q; Leuconostoc mesenteroides
notes: circular bacteriocin of Leuconostoc mesenteroides TK41401

Legend:
L. lactis IL1403 = assay: Antimicrobial activity (halo of inhibition on petri dishes) of cell-free produced, intein-circularized bacteriocins against indicator L. lactis IL1403; format: cell-based, Lactococcus lactis; set-up: key: +: Bacteriocins showing a halo of inhibition against at least one of the indicators were considered as positive; conditions: bacteriocins circularized with inteins; cell free production and overnight incubation at room temperature
Description: (§1) Recombinant vectors were stabilized and amplified in E. coli DH5a standard strain and used as templates for cell-free protein synthesis using PURExpress® in vitro Protein Synthesis Kit (New England Biolabs). All bacteriocins synthesized were tested on petri dishes for antimicrobial activity against an indicator strain. Bacteriocins showing a halo of inhibition against at least one of the indicators were considered as positive.
(§2) Following the same scheme as for GarML, different plasmids containing genes coding for recombinant proteins containing Npu IC and IN fused to the mature amino acid sequence of different known and hypothetical circular bacteriocins were synthesized. The circularization point for all of them was changed with respect to the native peptides so they all would start with a Ser in position 1 (Table 2.1). The Ssra tag was also added to the C-terminus. […] Plasmids synthesized were used as templates for cell free protein production. Antimicrobial activity of the peptides obtained after cell free production and overnight incubation at room temperature were tested against indicator L. lactis IL1403.

P. pentosaceus HELA = assay: Antimicrobial activity (halo of inhibition on petri dishes) of cell-free produced, intein-circularized bacteriocins against indicator P. pentosaceus HELA; format: cell-based; set-up: key: +: Bacteriocins showing a halo of inhibition against at least one of the indicators were considered as positive; conditions: bacteriocins circularized with inteins; cell free production
Description: as §1, §2

L. inocua = assay: Antimicrobial activity (halo of inhibition on petri dishes) of cell-free produced, intein-circularized bacteriocins against indicator L. inocua; format: cell-based; set-up: key: +: Bacteriocins showing a halo of inhibition against at least one of the indicators were considered as positive; conditions: bacteriocins circularized with inteins; cell free production
Description: as §1, §2

L. lactis = assay: Controlling growth of contaminating L. lactis in a culture medium with a circular bacteriocin (Examples 5 and 6); format: cell-based
From the text: A polypeptide containing an amino acid sequence of a circular bacteriocin, for example Enterocin AS-48, flanked by a split intein is produced. The split intein is a conditionally active, pH-sensitive split intein, and is configured to circularize the bacteriocin when the pH is below 6.0. The polypeptide is introduced into a culture medium growing a microbial organism of interest, at pH 7.0. […] When a contaminating microbial species, L. lactis, is detected in the culture medium, the pH of the medium is reduced to below 6.0, which activates the split intein and causes the bacteriocin to circularize. Subsequently, the growth of the contaminating L. lactis in the culture medium is inhibited.
A microbial cell is genetically engineered with an expression vector encoding a circular bacteriocin, for example Leucocyclicin Q, flanked by a split intein. The genetically engineered microbial cell is introduced into a culture medium growing a microbial organism of interest. The microbial cell produces the bacteriocin in circularized form, and secretes it into the culture medium. Growth of a contaminating microbial species, L. lactis, is inhibited by the circular bacteriocin.

Molecule | Antimicrobial activity, Indicator L. lactis IL1403 (L. lactis IL1403) | also measured
Garvicin ML (SGAFTAAGGIMALIKKYAQKKLWKQLIAALVATGMAAGVAKTIVNAVSAGMDIATALSLF; circularized via Npu split intein; Garvicin ML (GarML); Strain DCC43; listed as Lactococcus garvieae) [circular bacteriocin of Lactococcus garvieae DCC43] | + | –
Gassericin A (SGASLGTAFAAILGVTLPAWALAAAGALGATAAIYWIADQFGIHLATGTARKLLDAMA; circularized via Npu split intein; Strain LA39; Gassericin A (GasA); listed as Lactobacillus gasseri) [circular bacteriocin of Lactobacillus gasseri LA39] | + | Antimicrobial activity, Indicator P. pentosaceus HELA (P. pentosaceus HELA): +; Antimicrobial activity, Indicator L. inocua (L. inocua): +
Plantaricyclin A (SLTQKALDLLSAGSSLGTVAAAVLGVTLPAWAVAAAGALGGTAAIVWIAKQFGVHLTT; circularized via Npu split intein; Plantaricyclin A (PlcA); Strain NI326; listed as Lactobacillus plantarum) [circular bacteriocin of Lactobacillus plantarum NI326] | + | –
Bacteriocin NCTC 12958: putative circular bacteriocin of Streptococcus thermophilus NCTC 12958; SEQ ID NO: 854 circularized with Npu split intein (SAGGSIVDAFAIIAGITLPAWVAPVLAGFGVVSAIYWICGKFGIRLAPGWYQDIVDFV; circularized via Npu split intein; Bacteriocin NCTC 12958; Strain NCTC 12958; listed as Streptococcus thermophilus) | + | –
Paracyclicin P (SAGGSLAGAFSVVAGVTLPAWIVPIATAFGAVSAIYFIANKLGIHLAPGWYQDMVNYV; circularized via Npu split intein; Paracyclicin P (ParP); subsp. Paracasei JCM 8130/ DSM 5622; listed as Lactobacillus paracesei) [circular bacteriocin of Lactobacillus paracasei JCM 8130/DSM 5622] | + | –
Carnocyclin A (SLINAGLTVGSIISILGGVTVGLSGVFTAVKAAIAKQGIKKAIQLLVAYGIAQGTAEKVV; circularized via Npu split intein; Carnocyclin A; Strain UAL307; listed as Carnobacterium maltaromaticum) [circular bacteriocin of Carnobacterium maltaromaticum UAL307] | + | –
B1 | – | Antimicrobial activity, Indicator L. inocua (L. inocua): +
B2 | + | –
B3 | + | Antimicrobial activity, Indicator L. inocua (L. inocua): +
B4 | + | –
B5 | + | –
B6 | + | –
B7 | + | –
B8 | + | antimicrobial activity of non-circularized bacteriocin in culture medium (L. lactis; Example 5, pH-sensitive split intein, pH 7.0): does not exhibit antimicrobial activity; growth of contaminating L. lactis in culture medium (L. lactis; Example 5, pH-sensitive split intein, pH reduced to below 6.0): inhibited
B9 | + | –
B10 | + | growth of contaminating L. lactis in culture medium (L. lactis; Example 6, bacteriocin secreted by genetically engineered microbial cell): inhibited
